Values of other authors as cited in article PMC9453958.

Biological target: His64 (UniProt position 63, ILNNGHAFNVE)
Experiment: kinetics
Conditions: wild-type zinc enzyme during catalysis

In the case of “Carbonic anhydrase II (HCA II) (Homo sapiens)”, the pKa is given as 7.2 ± 0.1.
